Measurements: publication PMC5497784 (Cell metabolism, 2017)

Target: the molecule itself
Assay: cross-linking

B1: IRE1α* (cytosolic kinase and RNase domains of human IRE1α, residues 469-977) (domain or fragment, UniProt O75460 469-977, looked up)
chain: HQQQQLQHQQFQKELEKIQLLQQQQQQLPFHPPGDTAQDGELLDTSGPYSESSGTSSPSTSPRASNHSLCSGSSASKAGSSPSLEQDDGDEETSVVIVGKISFCPKDVLGHGAEGTIVYRGMFDNRDVAVKRILPECFSFADREVQLLRESDEHPNVIRYFCTEKDRQFQYIAIELCAATLQEYVEQKDFAHLGLEPITLLQQTTSGLAHLHSLNIVHRDLKPHNILISMPNAHGKIKAMISDFGLCKKLAVGRHSFSRRSGVPGTEGWIAPEMLSEDCKENPTYTVDIFSAGCVFYYVISEGSHPFGKSLQRQANILLGACSLDCLHPEKHEDVIARELIEKMIAMDPQKRPSAKHVLKHPFFWSLEKQLQFFQDVSDRIEKESLDGPIVKQLERGGRAVVKMDWRENITVPLQTDLRKFRTYKGGSVRDLLRAMRNKKHHYRELPAEVRETLGSLPDDFVCYFTSRFPHLLAHTYRAMELCSHERLFQPYYFHEPPEPQPPVTPDAL
B1: binds.
